Results: patent publication US11819540B2, “Methods for treating and preventing neutrophil-derived net toxicity and thrombosis” (CHILDREN'S MEDICAL CENTER CORPORATION, priority 2011, dated 2023)

Tested on: ischemic stroke (tMCAO) in mice
Test: Transient middle cerebral artery occlusion (tMCAO) stroke model
Type: in vivo, mouse
Description: Next, the question of whether cerebral ischemia/reperfusion injury effects circulating levels of NETs was addressed. Wild-type C57BL/6 mice were subjected to 2 hours of transient middle cerebral artery occlusion (tMCAO), followed by 22 hours of reperfusion. Focal cerebral ischemia was induced by 60 or 120 min tMCAO. Mice were anesthetized with 2% isoflurane/oxygen mixture. Following a midline skin incision in the neck, the proximal common carotid artery, and the external carotid artery were ligated, and a standardized silicon rubber-coated 6.0 nylon monofilament (6021; Doccol Corp., Redlands, CA) was inserted and advanced via the right internal carotid artery to occlude the origin of the right MCA. […] The intraluminal suture was left in situ during the complete occlusion time. Then animals were re-anesthetized, and the occluding monofilament was withdrawn to allow reperfusion. In animals undergoing a sham treatment, the exact same procedure was followed except that the monofilament was only inserted three quarters of the normal distance that is necessary to occlude the MCA, after which it was immediately withdrawn. Some animals were exclusively used for laser-Doppler flowmetry (Periflux 5000, Perimed, Kings Park, NY) to monitor regional cerebral blood flow (rCBF) in the MCA territory.
Wild type (WT) and […] mice were subjected to 1 h of tMCAO and 23 h of reperfusion after which mice and brains were analyzed. Mice were killed 24 hours after initiation of tMCAO. Brains were quickly removed and cut into 2-mm-thick coronal sections using a mouse brain slice matrix. The slices were stained with 2% 2,3,5-triphenyl-tetrazolium chloride (TTC; Sigma-Aldrich, St. Louis, MO) in PBS to visualize the infarctions. Sections were photographed with a digital Nikon D70 camera and infarct areas (white) were measured blindly using Image J software (National Institutes of Health). Brain infarct volumes were measured by planimetry (FIG. 9A). Compared to the wild-type controls, DNase-1^−/− mice developed larger brain infarctions (84.10±7.24 mm^3 versus 58.50±4.04 mm^3, p<0.05, FIG. 9A).
Neurological function was assessed, blinded for the mouse genotype 24 h, after initiation of tMCAO, using the modified Bederson score (Bederson et al., Stroke 1986 17:472-6). This test determines global neurological function according to the following scoring system: 0, no deficit; 1, forelimb flexion; 2, decreased resistance to lateral push; 3, unidirectional circling; 4, longitudinal spinning; 5, no movement. The grip test was performed as described (Moran et al., PNAS 1995 92:5341-5). A mouse was placed on a wooden bar (3 mm in diameter, 40 cm long) that is attached to two vertical supports 40 cm above a flat surface. When placing the mouse at a point midway between the supports, the experiment was rated according to the following system: 0, falls off; 1, hangs onto bar by two forepaws; 2, as for 1, but attempts to climb onto bar; 3, hangs onto bar by two forepaws plus one or both hindpaws; 4, hangs onto bar by all four paws plus tail wrapped around bar; 5, escape (where mouse was able to work its way to one of the supports). […] The turns in one versus the other direction were recorded from ten trials for each test. Turning movements that were not part of a rearing movement were not scored. […]

[1] = rhDNase-1 vs vehicle, 24 h, p<0.05

B1: rhDNase-1: recombinant human DNase-1 (Dornase alpha, Pulmozyme, Genentech) (protein, UniProt P24855 23-282, looked up)
Deoxyribonuclease-1: LKIAAFNIQTFGETKMSNATLVSYIVQILSRYDIALVQEVRDSHLTAVGKLLDNLNQDAPDTYHYVVSEPLGRNSYKERYLFVYRPDQVSAVDSYYYDDGCEPCGNDTFNREPAIVRFFSRFTEVREFAIVPLHAAPGDAVAEIDALYDVYLDVQEKWGLEDVMLMGDFNAGCSYVRPSQWSSIRLWTSPTFQWLIPDSADTTATPTHCAYDRIVVAGMLLRGAVVPDSALPFNFQAAYGLSDQLAQAISDHYPVEVMLK
- brain infarct volume (1 h tMCAO, 23 h reperfusion, 50 μg i.p. 15 min before surgery and 12 h later, 10 μg i.v. 5 min before reperfusion, vehicle 81.45±9.08): 50.67±8.74 mm^3
- infarct size smaller than vehicle (1 h tMCAO, 23 h reperfusion, rhDNase-1 vs vehicle): approximately 40%
- Bederson test score [1]: significantly better
- corner test result [1]: significantly better
- grip test score [1]: significantly better
